From patent US6429014B1, “Monoterpene synthases from grand fir (Abies grandis)” (Washington State University Research Foundation, priority 1997, dated 2002)

Experiments:
[1] = Bohlmann et al. 1997; cited from earlier work
[2] = Monoterpene synthase assay and product identification with extracts of E. coli expressing Grand fir cDNA clones (Example 3); type: biochemical
Experimental: For expression, bacterial strains E. coil XLOLR/pAG3.18, E. coil XLOLR/pAG3.48, E. coli XL1-Blue/pGAG2.2, E. coli XL1-Blue/pGAG3.18, and E. coil BL21(DE3)/pSBAG10were grown to A600=0.5 at 37° C. in 5 ml of LB medium (Sambrock, J., Fritsch, E. F., and Maniatis, T. (1989) Molecular Cloning: A Laboratory Manual, 2d Ed., Cold Spring Harbor Laboratory, Cold Spring Harbor, N.Y.) supplemented with 100 μg ampicillin/ml or 30 μg kanamycin/ml as determined by the vector. Cultures were then induced by addition of 1 mM isopropyl-1-thio-β-D-galactopyranoside and grown for another 12 h at 20° C. Cells were harvested by centrifugation (2000×g, 10 min) and resuspended in either 1 ml monoterpene synthase assay buffer [50 mM Tris/HCl (pH 7.5), 500 mM KCl, 1 mM MnCl2, 5 mM dithiothreitol, 0.05% (w/v) NaHSO3 and 10% (v/v) glycerol], 1 ml sesquiterpene synthase assay buffer [10 mM dibasic potassium phosphate, 1.8 mM monobasic potassium phosphate (pH 7.3), 140 mM NaCl, 10 mM MgCl2, 5 mM dithiothreitol, 0.05% (w/v) NaHSO3 and 10% (v/v) glycerol], or 1 ml diterpene synthase assay buffer [30 mM Hepes (N-2-hydroxyethylpiperazine-N-′2-ethanesulfonic acid, pH 7.2), 7.5 mM MgCl2, 5 mM dithiothreitol, 10 µM MnCl2, 0.05% (w/v) NaHSO3 and 10% (v/v) glycerol].
Cells were disrupted by sonication (Braun-Sonic 2000 with microprobe at maximum power for 15 seconds at 0-4° C.), the homogenates were cleared by centrifugation (18,000×g, 10 min), and 1 ml of the resulting supernatant was assayed for monoterpene synthase activity with 2.5 μM of [1-^3H]geranyl diphosphate, for sesquiterpene synthase activity with 3.5 μM [1-^3H]farnesyl diphosphate, or for diterpene synthase activity with 5 μM [1- ^3H]geranylgeranyl diphosphate following standard protocols (Croteau, R., and Cane, D. E. (1985) Methods Enzymol. 110:383-405; LaFever, R. E., Stofer Vogel, B., and Croteau, R. (1994) Arch. Biochem. Biophys. 313:139-149; Dehal, S. S., and Croteau, R. (1988) Arch. Biochem. Biophys. 261:346-356). In the case of the monoterpene synthase and sesquiterpene synthase assays, the incubation mixture was overlaid with 1 ml pentane to trap volatile products. In all cases, after incubation at 31° C. for 2 h, the reaction mixture was extracted with pentane (3×1 ml) and the combined extract was passed through a 1.5 ml column of anhydrous MgSO4 and silica gel (Mallinckrodt 60 Å) to provide the terpene hydrocarbon fraction free of oxygenated metabolites. The columns were subsequently eluted with 3×1 ml of ether to collect any oxygenated products, and an aliquot of each fraction was taken for liquid scintillation counting to determine conversion rate.
Product Identification—To obtain sufficient product for analysis by radio-GLC (gas liquid chromatography), chiral capillary GLC and GLC-MS (mass spectrum/spectrometry), preparative-scale enzyme incubations were carried out. Thus, the enzyme was prepared from 50 ml of cultured bacterial cells by extraction with 3 ml of assay buffer as above, and the extracts were incubated with excess substrate overnight at 31° C. The hydrocarbon fraction was isolated by elution through MgSO4-silica gel as before, and the pentane eluate was concentrated for evaluation by capillary radio-GLC as described (Croteau, R., and Satterwhite, D. M. (1990) J. Chromatogr. 500:349-354), by chiral column capillary GLC (Lewinsohn, E., Savage, T. J., Gijzen, M., and Croteau, R. (1993) Phytochem. Anal. 4:220-225), and by combined GLC-MS [Hewlett-Packard 6890 GC-MSD with cool (40° C.) on-column injection, detection via electron impact ionization (70 eV), He carrier at 0.7 psi., column:0.25 mm i.d.×30 m fused silica with 0.25 μm film of 5MS (Hewlett-Packard) programmed from 35° C. (5 min hold) to 230° C. at 5° C./min].

B1: AG3.18: recombinant (−)-pinene synthase from Grand fir encoded by cDNA clone AG3.18 (SEQ ID NO:3; protein SEQ ID NO:4) (protein, listed as Abies grandis)
chain: MALVSTAPLASKSCLHKSLISSTHELKALSRTIPALGMSRRGKSITPSISMSSTTVVTDDGVRRRMGDFHSNLWDDDVIQSLPTAYEEKSYLERAEKLIGEVKNMFNSMSLEDGELMSPLNDLIQRLWIVDSLERLGIHRHFKDEIKSALDYVYSYWGENGIGCGRESVVTDLNSTALGLRTLRLHGYPVSSDVFKAFKGQNGQFSCSENIQTDEEIRGVLNLFRASLIAFPGEKIMDEAEIFSTKYLKEALQKIPVSSLSREIGDVLEYGWHTYLPRLEARNYIQVFGQDTENTKSYVKSKKLLELAKLEFNIFQSLQKRELESLVRWWKESGFPEMTFCRHRHVEYYTLASCIAFEPQHSGFRLGFAKTCHLITVLDDMYDTFGTVDELELFTATMKRWDPSSIDCLPEYMKGVYIAVYDTVNEMAREAEEAQGRDTLTYAREAWEAYIDSYMQEARWIATGYLPSFDEYYENGKVSCGHRISALQPILTMDIPFPDHILKEVDFPSKLNDLACAILRLRGDTRCYKADRARGEEASSISCYMKDNPGVSEEDALDHINAMISDVIKGLNWELLKPDINVPISAKKHAFDIARAFHYGYKYRDGYSVANVETKSLVTRTLLESVPL
(−)-enantiomer share of the α-pinene formed [1]: more than 99% | prenyl diphosphate substrate utilized (geranyl, farnesyl, geranylgeranyl diphosphate tested) ([2]; cell-free extract of induced E. coli, tritium labeled substrates): only geranyl diphosphate was utilized | α-pinene share of product mixture from geranyl diphosphate ([2]; cell-free extracts of E. coli): 42% | β-pinene share of product mixture from geranyl diphosphate ([2]; cell-free extracts of E. coli): 58% | monoterpene products formed from geranyl diphosphate ([2]; radio-GLC, GLC-MS, chiral GLC): No other monoterpene co-products were detected
